Measurements from patent publication US6509447B1, “G protein chimeras and methods of screening compounds” (Glaxo Welcome Inc., priority 1997, dated 2003).

Experiments:
Ste2p = biological target: T1, Ste2p (Saccharomyces cerevisiae, UniProt D6VTK4); test: Reverse halo assay for FUS1-HIS3 expression, MMY9 cells, Ste2p; format: cell-based; parameters: stimulates the endogenous yeast receptor Ste2p; endogenous in cells; host or cells: Saccharomyces cerevisiae strain MMY9 (derived from W303-1A, MATa); settings: MMY9 cells with pRS314-GPA1, 3 nmol α-factor
T1 sequence (D6VTK4 1-431): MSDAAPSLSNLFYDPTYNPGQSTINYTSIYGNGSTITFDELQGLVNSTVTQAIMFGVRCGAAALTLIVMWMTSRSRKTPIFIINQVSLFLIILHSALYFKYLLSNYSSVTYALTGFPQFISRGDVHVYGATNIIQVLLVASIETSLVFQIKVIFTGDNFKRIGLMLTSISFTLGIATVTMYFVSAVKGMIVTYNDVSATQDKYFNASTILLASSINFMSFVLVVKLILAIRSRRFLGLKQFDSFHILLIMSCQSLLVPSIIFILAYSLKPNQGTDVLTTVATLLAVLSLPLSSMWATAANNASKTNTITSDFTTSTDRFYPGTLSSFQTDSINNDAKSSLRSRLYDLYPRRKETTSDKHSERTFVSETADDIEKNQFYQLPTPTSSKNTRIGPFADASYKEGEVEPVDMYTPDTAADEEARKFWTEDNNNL
Protocol: (§1) Assay for FUS1-HIS3 Expression. Reverse halo assays were carried out by growing MMY9 cells to early stationary phase (OD600≈4) in liquid SC-glucose (2%) medium lacking tryptophan and uracil. A uniform layer of cells (5×10^7) was plated to 22.5 cm by 22.5 cm bioassay dishes (Nunc) in 100 ml SC-glucose agar (1%) equilibrated to 50° C. This medium lacked tryptophan, uracil and histidine, and was supplemented with 10 mM 3-aminotriazole, and buffered to pH 7.0 with 0.1M sodium phosphate. Antibiotic discs were placed on the solidified agar, and a volume of agonist solution (1-5 μl) was applied to each disc. Plates were incubated at 30° C. for 3 days.
(§2) The four receptors were: the melatonin ML1B receptor, the serotonin 5HT1A receptor, the somatostatin SST2 receptor and the purinergic nucleotide receptor, P2Y2. […] Activation of the pheromone response pathway was monitored with two integrated reporter genes: […] allowing a growth readout in medium lacking histidine, and FUS1-lacZ allowing a β-galactosidase readout. […] Agonist-dependent activation of FUS1-HIS3 was determined by reverse halo assay in which agonists were applied to the filter discs in the arrangement shown in panel A, in quantities as follows: 3 nmol of somatostatin-14 (S-14); 40 nmol of melatonin (Mel); 3 nmol of α-factor; 100 nmol of UTP; 40 nmol of serotonin (5-HT). […]

[1] = biological target: T2, somatostatin SST2 receptor (Homo sapiens, UniProt P30874); test: Reverse halo assay for FUS1-HIS3 expression, MMY9 cells, SST2; format: cell-based; settings: MMY9 cells with pRS314-GPA1 and SST2 receptor, 3 nmol somatostatin-14
T2 construct: expressed in transfected cells; host or cells: Saccharomyces cerevisiae strains MMY9 and MMY11, plasmid pFL61-SST2, PGK1 promoter
T2 sequence (P30874 whole entry): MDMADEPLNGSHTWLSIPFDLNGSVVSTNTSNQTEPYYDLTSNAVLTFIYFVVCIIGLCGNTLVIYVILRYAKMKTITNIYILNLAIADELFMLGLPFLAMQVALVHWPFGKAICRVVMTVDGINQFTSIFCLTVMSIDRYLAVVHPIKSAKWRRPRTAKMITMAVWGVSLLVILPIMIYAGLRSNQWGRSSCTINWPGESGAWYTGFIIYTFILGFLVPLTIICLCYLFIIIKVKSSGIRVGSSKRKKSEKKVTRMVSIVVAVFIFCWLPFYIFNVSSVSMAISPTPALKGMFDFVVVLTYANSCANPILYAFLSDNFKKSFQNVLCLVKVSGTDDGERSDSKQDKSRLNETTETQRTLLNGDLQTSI
Protocol: as §1, §2

[2] = tested on: purinergic nucleotide P2Y2 receptor; test: CPRG assay, MMY11 cells expressing P2Y2 receptor plus Gα subunit; format: cell-based, human; parameters: key: weak activation insufficient to carry out curve-fitting was detected; NC: no coupling was detected
Chain of purinergic nucleotide P2Y2 receptor (P41231 1-347 limits assumed): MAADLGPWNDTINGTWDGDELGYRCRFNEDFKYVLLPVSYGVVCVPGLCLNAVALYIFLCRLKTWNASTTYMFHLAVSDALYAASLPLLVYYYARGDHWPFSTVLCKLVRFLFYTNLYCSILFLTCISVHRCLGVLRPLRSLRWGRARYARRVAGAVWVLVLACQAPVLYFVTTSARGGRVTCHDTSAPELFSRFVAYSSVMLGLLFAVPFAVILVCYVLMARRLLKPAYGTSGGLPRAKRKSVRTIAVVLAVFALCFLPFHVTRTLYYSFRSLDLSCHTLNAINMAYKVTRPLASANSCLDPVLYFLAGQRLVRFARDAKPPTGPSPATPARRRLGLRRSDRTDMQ
Protocol: (§3) Assay for combined FUS1-lacZ and FUS1-HIS3 Expression. In vivo assays of reporter gene induction (CPRG assays) were carried out by suspending cells to 0.02 OD600 in 200 μl SC-glucose (2%) lacking tryptophan, uracil and histidine. This medium was supplemented with agonists, and additionally 10 mM 3-aminotriazole and the β-galactosidase (lacZ) substrate chlorophenolred-β-D-galactopyranoside (CPRG; Boehringer) to a concentration of 0.1 mg/ml. To visualise the colour change reaction, the medium was buffered to pH 7 with 0.1 M sodium phosphate. The assay was conducted in a 96-well microtitre plate format. Plates were incubated for 24 hours without agitation, and absorbance at 570 nm was determined using a Victor microtitre plate reader (Wallac). EC50 values (+/−standard error) were estimated by curve-fitting, using the Robosage software package.
(§4) MMY11 was used in an experiment in which cells were transformed with pairs of plasmids as before, one to express a Gα subunit and the other a receptor expression construct. […] Where pheromone response pathway activation was detected, the agonist concentration required to yield a half-maximal response (EC50+/−standard error; all values in nM except where otherwise indicated) was determined by curve-fitting, and is shown in Table 4A. Where no coupling was detected, this is also indicated (NC).

[3] = biological target: T3, purinergic nucleotide P2Y1 receptor (Homo sapiens, UniProt P47900); test: CPRG assay, MMY11 cells expressing P2Y1 receptor plus Gα subunit; format: cell-based; parameters: key: weak activation insufficient to carry out curve-fitting was detected; NC: no coupling was detected
T3 construct: expressed in transfected cells; host or cells: Saccharomyces cerevisiae strain MMY11, plasmid pDT-PGK-P2Y1
T3 sequence (P47900 whole entry): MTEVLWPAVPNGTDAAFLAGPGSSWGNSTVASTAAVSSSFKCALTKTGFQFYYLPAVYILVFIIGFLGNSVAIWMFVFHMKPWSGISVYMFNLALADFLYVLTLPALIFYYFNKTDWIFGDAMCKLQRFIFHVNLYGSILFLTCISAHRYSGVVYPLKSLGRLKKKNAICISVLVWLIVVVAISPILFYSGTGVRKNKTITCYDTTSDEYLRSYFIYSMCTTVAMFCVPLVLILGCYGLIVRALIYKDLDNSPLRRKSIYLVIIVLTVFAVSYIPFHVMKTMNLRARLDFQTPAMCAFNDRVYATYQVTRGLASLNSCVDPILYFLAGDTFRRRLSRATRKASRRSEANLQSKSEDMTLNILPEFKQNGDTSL
Protocol: as §3, §4

serotonin 5HT1D receptor = biological target: T4, serotonin 5HT1D receptor (Homo sapiens, UniProt P28221); test: CPRG assay, MMY11 cells expressing 5-HT1D receptor plus Gα subunit; format: cell-based; parameters: key: weak activation insufficient to carry out curve-fitting was detected; NC: no coupling was detected
T4 construct: expressed in transfected cells; host or cells: Saccharomyces cerevisiae strain MMY11, plasmid pDT-PGK-5-HT1D
T4 sequence (P28221 whole entry): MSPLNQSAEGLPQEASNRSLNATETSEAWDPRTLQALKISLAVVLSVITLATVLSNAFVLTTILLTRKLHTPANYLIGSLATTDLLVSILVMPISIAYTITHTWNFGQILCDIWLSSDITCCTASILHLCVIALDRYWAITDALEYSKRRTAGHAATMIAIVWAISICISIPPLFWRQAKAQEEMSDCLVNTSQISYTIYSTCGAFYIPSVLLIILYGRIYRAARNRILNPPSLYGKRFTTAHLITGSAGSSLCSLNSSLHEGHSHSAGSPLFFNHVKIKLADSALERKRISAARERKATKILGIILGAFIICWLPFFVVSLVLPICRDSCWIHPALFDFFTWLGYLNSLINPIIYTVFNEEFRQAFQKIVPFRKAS
Protocol: as §3, §4

B1: Gpa1p: endogenous yeast Gα subunit, product of the GPA1 gene (protein, UniProt P08539 2-472, looked up)
Guanine nucleotide-binding …: GCTVSTQTIGDESDPFLQNKRANDVIEQSLQLEKQRDKNEIKLLLLGAGESGKSTVLKQLKLLHQGGFSHQERLQYAQVIWADAIQSMKILIIQARKLGIQLDCDDPINNKDLFACKRILLKAKALDYINASVAGGSDFLNDYVLKYSERYETRRRVQSTGRAKAAFDEDGNISNVKSDTDRDAETVTQNEDADRNNSSRINLQDICKDLNQEGDDQMFVRKTSREIQGQNRRNLIHEDIAKAIKQLWNNDKGIKQCFARSNEFQLEGSAAYYFDNIEKFASPNYVCTDEDILKGRIKTTGITETEFNIGSSKFKVLDAGGQRSERKKWIHCFEGITAVLFVLAMSEYDQMLFEDERVNRMHESIMLFDTLLNSKWFKDTPFILFLNKIDLFEEKVKSMPIRKYFPDYQGRVGDAEAGLKYFEKIFLSLNKTNKPIYVKRTCATDTQTMKFVLSAVTDLIIQQNLKKIGII
In the case of B1, the “agonist-dependent activation of FUS1-HIS3 (halo of cell growth)” value (Ste2p) is reported as “increased expression of FUS1-HIS3 to enable a halo of cell growth”, the “agonist-dependent activation of FUS1-HIS3 (halo of cell growth)” value [1] is reported as “responded to somatostatin” and the “coupling class where no EC50 could be fitted” value [2] is reported as “weak”. For the same molecule, the “coupling class where no EC50 could be fitted” value [3] was “NC” and the “coupling class where no EC50 could be fitted” value (serotonin 5HT1D receptor) was “NC”.
